The source of these data is publication PMC3140484.

For series [1], the system named is CopR (CgtR9) response regulator, preincubated with acetylphosphate (Corynebacterium glutamicum ATCC 13032). In words: EMSA. The following applies: 50 mM Tris-HCl pH 7.5, 50 mM KCl, 10 mM MgCl2, 0.5 mM EDTA, 10% glycerol, room temperature 30 min; 50 mM acetylphosphate preincubation (60 min) for P2; DNA …. For orientation: In EMSA bound probe runs differently from free probe, usually more slowly.

The test system of series [2] is CopR (CgtR9) response regulator, unphosphorylated (Corynebacterium glutamicum ATCC 13032). Nature of the series: EMSA. The note with it: unphosphorylated; apparent Kd; 50 mM Tris-HCl pH 7.5, 50 mM KCl, 10 mM MgCl2, 0.5 mM EDTA, 10% glycerol, room temperature 30 min; 50 mM acetylphosphate preincubation (60 min) for P2; DNA ….

Consider copR promoter Kd probe, 90 bp, for which the Kd in series [1] was 0.4 µM; in series [2], 2.3 µM.
